# Laboratory results taken from the DeepSol protein solubility set.
# Test: soluble on expression in E. coli; label from the status in PepcDB or PDB records
row,Sequence,soluble on expression in E. coli
1,MLEKWEPIMAETRKLKYDEAALRTLTREDLDALEIGAGILGTGGGGNPYLGKLLALEAMKAGYEMKILATDAIEPDALCMSIGGIGAPVVGVERIREGREGLRCLRAMEELIRTPVDAIVCEEIGGSNSMNPLVTAALGGLPILDCDGMGRAFPEMQMTTFSIYGHSSTPSVMCDLHGNAVIFSHAVSEVWHERMARACVVAQGGGAMLATAPMQAHYVHQYGIPKTYTKAIAIGEAVIRARKQQEDPIAAVCALEGGRRIFNGKITDLKRHLRGGFAVGDLTLSGFDDCAGQTAGVAIQNEFLLFSRDGKVEVTVPDLIVLLDVDTGYPITTEVLRYGQRVAVIAIPCHDLLRSARALEVVGPAAFGYPDIPFSPLPLPVSKAALEHHHHHH,soluble
2,MLELYHRKKLFNLLKAPLKKKPFFFIYNTKQTYRDKTPMRNIDFSKLHLSEDVRANEKVHNKRNLFMSNKIIHYLPPKRHD,not soluble
3,MLENYARFITAASAARNPSPIRTMTDILSRGPKSMISLAGGLPNPNMFPFKTAVITVENGKTIQFGEEMMKRALQYSPSAGIPELLSWLKQLQIKLHNPPTIHYPPSQGQMDLCVTSGSQQGLCKVFEMIINPGDNVLLDEPAYSGTLQSLHPLGCNIINVASDESGIVPDSLRDILSRWKPEDAKNPQKNTPKFLYTVPNGNNPTGNSLTSERKKEIYELARKYDFLIIEDDPYYFLQFNKFRVPTFLSMDVDGRVIRADSFSKIISSGLRIGFLTGPKPLIERVILHIQVSTLHPSTFNQLMISQLLHEWGEEGFMAHVDRVIDFYSNQKDAILAAADKWLTGLAEWHVPAAGMFLWIKVKGINDVKELIEEKAVKMGVLMLPGNAFYVDSSAPSPYLRASFSSASPEQMDVAFQVLAQLIKESL,soluble
4,MLERLKAITNLLKGALEQRSRAEEGYIREEKVKEAIELLEALERDIMEKELKLAKEALEKFDSNRKFYYLVGKLYVEVSKEEAQKLIEDELKMFGGEGK,not soluble
5,MLGGNNDNPVPQVLMNDSQFRYQSNTSLNQLHLLGTMRAGCTIDPVNYFANDNLAPMMRLNSTRGRETENNNIMQRQQKLQISLNYNYNNNNTVVQDEVPKQNLVSTGLRLSYDDDERNSSVTSANGSITTPVYQSLGDNIRLDLNRQNDELDQFIKFRADQMAKGVRDIKQRHVTSFVTALEKDVSKKLQEKDHEIESMNKKNRELVDKIKQVAVEAQNWHYKAKYNESVVNALKVNLQQVMSHGNDNNAVGGGVADHHQMKEGFGDSEIDDEAASYNYLNIPGMPSTGMRCKLCNVKNVSVLLVPCRHLSLCKDCDVFTGVCPVCQSLKTSSVQVFFF,soluble
6,MLGLKTSIIGRRVIYFQEITSTNEFAKTSYLEEGTVIVADKQTMGHGALNRKWESPEGGLWLSIVLSPKVPQKDLPKIVFLGAVGVVETLKEFSIDGRIKWPNDVLVNYKAIAGVLVEGKGDKIVLGIGLNVNNKVPNGATSMKLELGSEVPLLSVFRSLITNLDRLYLNFLKNPMDILNLVRDNMILGVRVKILGDGSFEGIAEDIDDFGRLIIRLDSGEVKKVIYGDVSLRFL,soluble
7,MLHAETEVIVEDEPPILNLSRYRDEDRIQMDPFGDDEEEDDGFMDGQPPDLEMNLPSKQRRVRTRKPMDTDGSIDDGDKEKKAMKIINPAAATPSKMFRVQGERVISKALAERQYHVKLFEDEVEMTENGDCYATVISGCLAYLLRKERIIELLTNETEIAMMYGDKKKKYKKKISSKNKENCQNFKLLSEKSVRKKKQKSTVPIFSREGGWLLDKPPRLPPLVPHKACFAFYVDGSKIMSIKDVSNDDLKPWSSTGGEQHFNDPVIKPNVRRHPVARLNGRLQSVKGDPRIAELHLTEYSAWLPRLLRLRKKIFYLSRDGQIYGNVLILYDYTCPGEIPPIVNLPHGNDYLRHAMVDPTDPHVSLDLDDPGSTPFEDEIVEGPRGGMFLRVKLAKLGWAHNKKLLLRYLVNEPELLSQSNCLNRRTPYLPPLIPTTGVFVYFVPANFVANQINHTGDGLSPWTVNPASEGPSPRVRSTRRAIVQDDNGQFQMAKDTAGGWHSSQLCLVETMSVLARCPRLRKRLIYIQRNNTITIGNVCYIYEYVRDGPVPCPYVKPPGTPGRGVGGSKWIDDQKKIDTSQDPSTSSAAPNDEEQFIDVEDLEVVEEEVIGHHNDSLDQIQLQHDQHQQQQHQLMQDVSIAQDAQGHLLDDDLLDMSQEDVLNNGYDLEFDDDPLTQQENPAPYFENPRQLETGHIYLTVRHKRVASTFEAVLEWIANTNVVEERGLLNYAKPGHPPIVRNSRAYAFFVAGTAIFPHDINRDDFSPWSHNGNAQNPTCYRTKVRKVGVICDELGSQFQVLHGSQGKQPKKSDGNRRSPKIPKSAYFL,not soluble
8,MLIAIEGVDGAGKRTLVEKLSGAFRAAGRSVATLAFPRYGQSVAADIAAEALHGEHGDLASSVYAMATLFALDRAGAVHTIQGLCRGYDVVILDRYVASNAAYSAARLHENAAGKAAAWVQRIEFARLGLPKPDWQVLLAVSAELAGERSRGRAQRDPGRARDNYERDAELQQRTGAVYAELAAQGWGGRWLVVGADVDPGRLAATLAPPDVPS,soluble
9,MLIALTGTPGTGKSSVAERLRERGYKVATVVELAEKHGCIIDEEDGEIVIDVESLAARIDFEGIVEGHLSHLLKPDVAIVLRCNPAVLRERLKGRNWSEEKLLENLEAEMLDVILVEALEHASEVYEIDTTEMSLEEVIEAVEAIIRGDREARKRYKPGGIDWLSELEDRIEEFMRKVLEHHHHHH,soluble
10,MLIAQEQEQSSISLLAEVSRAVNNEEDISKVLRLVLFILSEHMNMLRGMVTILNRTTGEMVINESFGLTDEQRQLARYKVGEGIIGQVVKTGRPSVVPRINEEPLFLDRTQSRAEENKEELCFICVPIKVGREVIGTLSADRRISVPAENGDKKLWRKSDRIDVLQYYVDLLSIIAAMIAQAVRIKQLDDEKS,not soluble
11,MLIGVISDTHIPDRASEIPEAVFDAFRDVELILHAGDLTSPDILTELETLAPVECVQGNMDRHYGIETPRSRLFEIESFRVGLIHGEVYPRGDTQQLRYLGLELGADVLISGHTHQPFIRELEDMVLLNPGSPTVPRLTDPSVMVLRIDGEKLDAEIIRTGAPVCRSLNFRR,not soluble
12,MLIILTGLPSVGKSTFSKAFSKKMAEKNIDNIILGTDLIRESFPVWKESYEEFIRDSNNYLIKEALENKFSVIVDDTNYYNSKRRDLMNIAKECDTNYVTIYLKAPLNLLLKRNIERGQKIPNEVIKNMYEKFDTPGTKYAWDLPDITVDTTEKIDYNEILNEILEINENKNLKIEEDKIPKSEPVESDLVKIDSLTRNIVGNLIKTGKIDKKDIKLLSEIRKSFLKDCKKIESEKLDFEKIEKDFLDYLNKNLK,not soluble
13,MLILNQRQQELLDMVKRESYVSVEKLADHFSVTRQTIRRDIALLAEHQLLQRYHGGASVLSSVENVAYQARQVLCIEEKRRIAACVARHIPDNASLFINLGTTTEEVAKALHRHRGLRVITNNLHVAEQMCDYPDCEVIVLGGSLRKRDRGLTGEATVQMIRQFRVDYGIIGVSSIESDGTLRDYDYREVRTTEAIIQQSRQVFLAADHSKFDRPALVELGRLSQIAALFTDKPVPPAIAHVMQEAGTQLHVAELEHHHHHH,soluble
14,MLKANVFCAGPVEALILDWAGTTIDFGSLAPVYAFMELFKQEGIEVTQAEAREPMGTEKSEHIRRMLGNSRIANAWLSIKGQASNEEDIKRLYDLFAPIQTRIVAQRSQLIPGWKEVFDKLIAQGIKVGGNTGYGPGMMAPALIAAKEQGYTPASTVFATDVVRGRPFPDMALKVALELEVGHVNGCIKVDDTLPGIEEGLRAGMWTVGVSCSGNEVGLDREDWQALSSDEQQSYRQHAEQRLFNAGAHYVIDSVADLETVITDVNRRLARGEKP,soluble
15,MLKEHSKKQHLRREVQEKLKNEAIVAAQTLSTAVVDHLNAKVAQAYGNQKRLDVEAKRFENNSAALAKQTEQWLFITEGLNYALKEIGDVENWSKTIENDMKIITETLRRAYEAKNPPLPPNQANPASH,not soluble
16,MLKHDLDYLELLSESFPTATEAATEIINLEAILNLPKGTEHFLADIHGEYEAFIHVLKNASGSIRRKVDEVFGGQLRQNQKRELCTLIYYPREKLELVKQSDERMEDWYMVTLNQLIKVCQKAAEKYTRSKVRKTLPPKYSYIIQELLHEDGVNPNKSAYISSIFSSIISTGCADDFIIAISETIQRLVIDHLHVVGDVFDRGPGAHIIMDTLMKYHHFDIQWGNHDMLWMGAAVGNASCMANVVRIALRYANLDTLESGYGINLLPLARFAMDTYADDPCTVFKPKLAQADQTYDDKSVYLISQMHKAISIIQFKLEHQIIARHPEYKMDNRDLFHLVNFTDGTIKLSSGVYPMLDMNFPTVDPADPYALTEQEQNIVDRLMGCFMRSEKLQNHLKCLYRHGSMYLTYNMNLLYHASIPLNKDKSLKKVRVGDKTYAGRELLDKVEEMIRTAYVAPEKSDQRLAAVDYMWYLWCGPDSPLFDKAMMTTFERYFIEDKATHHEEKGYYYVYRQEKAVCEMILKEFGLEGPDTHIINGHVPVKAKKGELPIGAEGKLMLIDGGFSKAYQSSTGIAGYTLIFNSQGLHLVQHEPFSSTRKAIEEMEDIKSITVVREVTSHRMLVKDTDNGHLLSKQVENLKKLLQAYSYGLIKERKK,not soluble
17,MLKHLLPLGTRDEFGRRARTKQHLIAVIQAHFKQRGLAPIATPLLENEAVFDPYQMGNYQLYRLFGNDGRTLVLRPDMTLPVARFISATNVPLPQKFGYVGDIFRVSRQLSGSYNQITQAGVELVGYASLKAEFECLTIANQLSSELIADAVEIELGDAQFAQRVVASLTGDEGEQQAILTALFDKQVPRYTKLIAKYRAQPLYDFLKAWPRLFGRPECIFKELAAAPLPETVQPSLKRLQTVVAWMQQTMPEQVISVDLSSQAPQKYYTGLTFRGYSQAGAGYLFSGGRYDKLLTNFQAEAEPAVGMGLNVDLLTTLATDQQTAYAEQLIYFEPEQWSQAEAYLAKQPHAILSLADDLAGARIEAQRLNAQLIDLTGGMTND,not soluble
18,MLKLKFNEEGLIPVIAQDYRTGEVRMLAYANEEAIKKTLETGYAHYYSRSRKKIWKKGETSGELQKVIEVRVDCDEDALIYVIEQEKDRACHTGERNCFFRDIEGNKVEKPLPFEVLPRLQDVIREKIERKEENSYTAKLVSQGKERVFQKFGEEAVETLIALMKGEKEEVIYESADMLYTFLVSLSVSGIDIKEVMEELIRRFK,soluble
19,MLKLRFPLPVFRNAREIANGRNARMALKGLVANRAALIISPSFGSSQYFEQVVRLINAQSVRVIERSWQGEPSVEELSGVIGELEDFKPDYILALGGGSIIDGAKLAWLFYECPTLESELLYRPFALPSLRGRAKFAAIPTTVGAGSEVSSAAVMLDSVTNSKKAVVTHDFLPDLVILDPDLVSEVPPKVLKTTVADALSHAIEGYVSLIDNPLMNTFAEQAVSIIYRYRHQFSNDNWSSEMLSELQQAAMFAGWVQNHCIVGLSHAIAHQLGTFNIGHGLANGLLMPAVINFNYREHTAATKYEQLIYKSGLPNKEALLELFEVLVGEQKTDMHFSEQQLTTIAENALLDPAAKSNPVRFTENDVKEIVKQCL,not soluble
20,MLKRLGIVGFGASAIGFINGLIESGKVKDYRITVLERGKDYSHNTISGVRMDGKIFISHGMGGEIYIPLEIQAKTVEFYLKFSGYTPTVDKRVGIVNYLKSFERDGRKIEFGESFSDEEIYKRFYHHGFEPVKSYFFHLGTDILKETNKNIYEYFSSFENIEFLFGTTVEDVEFGPPHRVHTNRGDFEFDELVIAVGRSGHRLMERLKEKYPQLVRPNQFVDIGVRYELPNHVMDPFSDMYEVKVRYRTKTGYICRIFCQNPAGKVTLEKYEDFTTVNGYSDSLHKTENTNFAILVTTRFTEPFKDPTGYGVNLAKLANILAGDKEKVILQTYGDFKEFRRTKRLGRVHPTLDSESYILGDANLVFPSKIRESLVDFVENLEKVIPGASYFDNLLYAVEVKFYTNKFLNDIVEGLHVVGDCSGWTRSIQYATSMGYMRAVGMKIQSLLEHHHHHH,not soluble
